Experimental data published in paper PMC2275093.

T1: Cren7 (recombinant) (Sulfolobus solfataricus P2, UniProt Q97ZE3 1-60)
T1 sequence: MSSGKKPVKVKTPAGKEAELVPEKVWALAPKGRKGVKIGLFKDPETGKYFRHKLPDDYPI


How the values were obtained:
Cren7 (recombinant) [1] = target: T1, Cren7 (recombinant); assay: EMSA
Cren7 (recombinant) [2] = target: T1, Cren7 (recombinant); assay: NMR 1H-15N HSQC titration

Binder	Kd (Cren7 (recombinant) [1]) [nM]	binding result (Cren7 (recombinant) [2])
poly(GACT)15 60 nt ssDNA (ssDNA) DNA: GACTGACTGACTGACTGACTGACTGACTGACTGACTGACTGACTGACTGACTGACTGACT	~2500	–
10-bp duplex (dsDNA) DNA 1: GCGAATTCGC DNA 2: GCGAATTCGC	–	binds
